Assay results as given in patent publication US20110269680A1, “GLP-1 ANALOGS AND USES THEREOF” (PANACEA BIOTEC LIMITED, priority 2008, published 2011).

Target: GLP-1 receptor
Assay: cell-based or functional assay

GLP-1(7-37) parent (from UniProt P01275 98-128) (peptide)
EC50, Receptor Functional assay (intracellular cAMP in CHO/GLP-1R cells): 50.3 pM
